B1: Ab-52 (antibody, V domains shown)
VH: QVQLQESGGGVVQPGRSLRLSCSASGFTFSRHGMHWVRQAPGKGLEWVAVISHDGSVKYYADSMKGRFSISRDNSNNTLYLQMDSLRADDTAVYYCARGLSYQVSGWFDPWGQGTLVTVSS
VL: NFMLTQPHSVSESPGKTVTISCTRSSGSIASNYVQWYQQRPGSAPTTVIYEDNQRPSGVPDRFSGSIDSSSNSASLTISGLKTEDEADYYCQSYDSTTPSVFGGGTKLTVL
notes: also called huPD-L1 Ab # 52
B2: Ab-14 (antibody, V domains shown)
VH: QVQLVQSGAEVKKPGASVKVSCKASGYTFTSYGISWVRQAPGQGLEWMGWISAYNGNTNYAQKLQGRVTMTTDTSTSTAYMELRSLRSDDTAVYYCARALPSGTILVGGWFDPWGQGTLVTVSS
VL: NFMLTQPHSVSESPGKTVTISCTRSSGNIASNYVQWYQQRPGSAPTTVIYEDNQRPSGVPDRFSGSIDSSSNSASLTISGLKTEDEADYYCQSYDSSNLWVFGGGTKLTVL
notes: also called huPD-L1 Ab # 14
B3: Ab-56 phage-scFv (scFv, V domains shown, not shown: large carriers; small tags and cut ends)
VH: EVQLVESGAEVMNPGSSVRVSCRGSGGDFSTYAFSWVRQAPGQGLEWMGRIIPILGIANYAQKFQGRVTITADKSTSTAYMELSSLRSDDTAVYYCARDGYGSDPVLWGQGTLVTVSS
VL: NFMLTQPHSVSGSPGKTVTLPCTRSSGSIASHYVQWYQQRPGSAPTTVIYEDNKRPSGVPDRFSGSIDSSSNSASLSISGLKTEDEADYYCQSYDSSNRWVFGGGTKLTVL
notes: also called Ab-56 scFv-phage
B4: Ab-30 (antibody, V domains shown)
VH: QVQLVQSGGSVVRPGESLRLSCVASGFIFDNYDMSWVRQVPGKGLEWVSRVNWNGGSTTYADAVKGRFTISRDNTKNSLYLQMNNLRAEDTAVYYCVREFVGAYDLWGQGTTVTVSS
VL: QSALTQPASVSGSPGQSITISCTGTSSDVGGYNYVSWYQQHPGKAPKLMIYDVSNRPSGVSNRFSGSKSGNTASLTISGLQAEDEADYYCSSYTSSTLPFGGGTKLTVL
notes: also called huPD-L1 Ab # 30
B5: Ab-55 (antibody, V domains shown)
VH: QVQLVQSGAEVKKPGASVKVSCKASGYTFTSYGISWVRQAPGQGLEWMGWTSPHNGLTAFAQILEGRVTMTTDTSTNTAYMELRNLTFDDTAVYFCAKVHPVFSYALDVWGQGTLVTVSS
VL: NFMLTQPHSVSESPGKTVTISCTRSSGSIASNYVQWYQQRPGSSPTTVIYEDNQRPSGVPDRFSGSIDTSSNSASLTISGLKTKDEADYYCQSYDGITVIFGGGTKLTVL
notes: also called huPD-L1 Ab # 55
B6: Ab-50 (antibody, V domains shown)
VH: QVQLVQSGGEVKKPGASVKVSCKASGYTLSSHGITWVRQAPGQGLEWMGWISAHNGHASNAQKVEDRVTMTTDTSTNTAYMELRSLTADDTAVYYCARVHAALYYGMDVWGQGTLVTVSS
VL: QSVLTQPPSVSVAPGQTARITCGGNNIGSKGVHWYQQKPGQAPVLVVYDDSDRPSGIPERFSGSNSGNTATLTISRVEAGDEADYYCQVWDSSSDHWVFGGGTKLTVL
notes: also called huPD-L1 Ab # 50
B7: Ab-46 phage-scFv (scFv, V domains shown, not shown: large carriers; small tags and cut ends)
VH: EVQLVESGAEVKKPGSSVKVSCKVSGGTFGTYALNWVRQAPGQGLEWMGRIVPLIGLVNYAHNFEGRISITADKSTGTAYMELSNLRSDDTAVYYCAREVYGGNSDYWGQGTLVTVSS
VL: NFMLTQPHSVSESPGKTVTISCTRSSGNIGTNYVQWYQQRPGSAPVALIYEDYRRPSGVPDRFSGSIDSSSNSASLIISGLKPEDEADYYCQSYHSSGWEFGGGTKLTVL
notes: also called Ab-46 scFv-phage
B8: Ab-42 (antibody, V domains shown)
VH: QVQLVQSGAEVKKPGSSVKVSCKASGGTFSSYAISWVRQAPGQGLEWMGGIIPIFGTANYAQKFQGRVTITADKSTSTAYMELSSLRSEDTAVYYCARGRQMFGAGIDFWGPGTLVTVSS
VL: NFMLTQPHSVSESPGKTVTISCTRSSGSIDSNYVQWYQQRPGSAPTTVIYEDNQRPSGVPDRFSGSIDSSSNSASLTISGLKTEDEADYYCQSYDSNNRHVIFGGGTKLTVL
notes: also called huPD-L1 Ab # 42; mAb42
B9: Ab-31 (antibody, V domains shown)
VH: QVQLVQSGAEVKKPGATVKVSCKVFGDTFRGLYIHWVRQAPGQGLEWMGGIIPIFGTANYAQKFQGRVTITTDESTSTAYMELSSLRSEDTAVYYCASGLRWGIWGWFDPWGQGTLVTVSS
VL: EIVLTQSPATLSLSPGERATLSCRASQSIGNSLAWYQQKPGQAPRLLMYGASSRATGIPDRFSGSGAGTDFTLTISSLEPEDFATYYCQQHTIPTFSFGPGTKVEVK
notes: also called huPD-L1 Ab # 31

Key:
[1] = molecular target: T1, human PD-L1 (hPD-L1) expressed on transfected 300.19 cells (human, UniProt Q9NZQ7 19-290); assay: FACS, hPD-L1 300.19 cells, assay 1, Ab 0.1 ug/ml
T1 construct: whole, on cells; also called B7H1
Experimental: (§1) Binding analysis of huPD-L1 antibodies were performed using PD-L1-expressing cells. […] GF1538 and GF1757 antibodies were used as controls: GF1538 is a humanized Ab against hPD-L1, and GF1757 is a humanized Ab against hPD-L2. The secondary antibody utilized was PE-goat anti-human IgG. All values represent mean fluorescence intensity (GMFI), as detected by FACs analysis.

[2] = molecular target: T1, human PD-L1 (hPD-L1) expressed on …; assay: competition FACS, hPD-L1 300.19 cells, signal = bound hPD-1-mIgG2a, Ab approx 10 ug/ml
Experimental: (§2) A competitive FACS analysis was performed to characterize the inhibition of hPD1 binding to hPD-L1 by the soluble huPD-L1 antibodies of the present invention. […] In this assay, 50,000 cells expressing hPD-L1 were pre-incubated with the huPD-L1 or control antibodies for 30 minutes at the following concentrations: 10 μg/ml, 1 μg/ml, 0.1 μg/ml and 0.01 μg/ml. […] After 30 minutes of incubation, the cells were washed twice and then analyzed by FACS. MFI values from Table 20 are used to generate a percent inhibition of hPD1 binding with hPD-L1+ cells for FIG. 4.

[3] = molecular target: T1, human PD-L1 (hPD-L1) expressed on …; assay: FACS, hPD-L1 300.19 cells, assay 2, Ab 1 ug/ml
Experimental: as §1

[4] = molecular target: T1, human PD-L1 (hPD-L1) expressed on …; assay: FACS, hPD-L1 300.19 cells, assay 1, Ab 1 ug/ml
Experimental: as §1

[5] = molecular target: T1, human PD-L1 (hPD-L1) expressed on …; assay: competition FACS, hPD-L1 300.19 cells, signal = bound hPD-1-mIgG2a, Ab 0.1 ug/ml
Experimental: as §2

[6] = molecular target: T1, human PD-L1 (hPD-L1) expressed on …; assay: FACS, hPD-L1 300.19 cells, assay 2, Ab 0.1 ug/ml
Experimental: as §1

[7] = molecular target: T1, human PD-L1 (hPD-L1) expressed on …; assay: FACS, hPD-L1 300.19 cells, assay 2, Ab 0.01 ug/ml
Experimental: as §1

[8] = molecular target: T1, human PD-L1 (hPD-L1) expressed on …; assay: FACS, hPD-L1 300.19 cells, assay 1, Ab 0.01 ug/ml
Experimental: as §1

[9] = molecular target: T1, human PD-L1 (hPD-L1) expressed on …; assay: FACS, hPD-L1 300.19 cells, assay 1, Ab approx 10 ug/ml
Experimental: as §1

[10] = molecular target: T1, human PD-L1 (hPD-L1) expressed on …; assay: FACS, hPD-L1 300.19 cells, assay 2, Ab approx 10 ug/ml
Experimental: as §1

[11] = molecular target: T1, human PD-L1 (hPD-L1) expressed on …; assay: competition FACS, hPD-L1 300.19 cells, signal = bound hPD-1-mIgG2a, Ab 1 ug/ml
Experimental: as §2

[12] = molecular target: T1, human PD-L1 (hPD-L1) expressed on …; assay: competition FACS, hPD-L1 300.19 cells, signal = bound hPD-1-mIgG2a, Ab 0.01 ug/ml
Experimental: as §2

[13] = molecular target: T2, full length PD-L1 in the form of paramagnetic proteoliposomes (PMPL) (human, UniProt Q9NZQ7 19-290); assay: phage display panning on PD-L1 proteoliposomes
T2 construct: whole, on cells; Full length protein in proteoliposomes, not on cells; the form 'whole' is meant; also called proteoliposome-coupled-PD-L1
T2 sequence (Q9NZQ7 19-290): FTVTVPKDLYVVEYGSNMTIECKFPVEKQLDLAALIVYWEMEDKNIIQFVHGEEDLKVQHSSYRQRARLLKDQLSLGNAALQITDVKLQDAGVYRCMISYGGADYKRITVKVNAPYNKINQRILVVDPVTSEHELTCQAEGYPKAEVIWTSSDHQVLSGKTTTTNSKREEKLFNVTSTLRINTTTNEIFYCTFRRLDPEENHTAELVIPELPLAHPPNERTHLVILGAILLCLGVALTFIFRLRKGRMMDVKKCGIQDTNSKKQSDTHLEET

T1 sequence (Q9NZQ7 19-290): as above

| Binder | Cells PE-A Mean [1] [MFI] | Cells PE-A Mean (bound hPD-1-mIgG2a) [2] [MFI] | Cells PE-A Mean [3] [MFI] | Cells PE-A Mean [4] [MFI] | Cells PE-A Mean (bound hPD-1-mIgG2a) [5] [MFI] | Cells PE-A Mean [6] [MFI] | Cells PE-A Mean [7] [MFI] | Cells PE-A Mean [8] [MFI] | Cells PE-A Mean [9] [MFI] | Cells PE-A Mean [10] [MFI] | Cells PE-A Mean (bound hPD-1-mIgG2a) [11] [MFI] | Cells PE-A Mean (bound hPD-1-mIgG2a) [12] [MFI] | binding result [13] |
| --- | --- | --- | --- | --- | --- | --- | --- | --- | --- | --- | --- | --- | --- |
| B1 | 5610 | 380 | 34900 | 21400 | 6750 | 14700 | 2690 | 1070 | 28400 | 37200 | 2070 | 11900 | – |
| B2 | 8100 | 696 | 53200 | 23300 | 14900 | 17700 | 3700 | 1650 | 41500 | 77900 | 12000 | 15800 | – |
| B3 | – | – | – | – | – | – | – | – | – | – | – | – | binds |
| B4 | 17500 | 244 | 61200 | 37500 | 4780 | 39100 | 7720 | 3510 | 47600 | 67300 | 661 | 11600 | – |
| B5 | 2300 | 150 | 26500 | 9650 | 9140 | 8910 | 1760 | 543 | 24400 | 42400 | 3620 | 12900 | – |
| B6 | 15100 | 207 | 63400 | 42100 | 2800 | 28700 | 5200 | 2690 | 49400 | 69600 | 156 | 12500 | – |
| B7 | – | – | – | – | – | – | – | – | – | – | – | – | binds |
| B8 | 14900 | 139 | 72100 | 40900 | 3140 | 49400 | 11600 | 2080 | 53600 | 76800 | 142 | 11800 | – |
| B9 | 12500 | 157 | 71000 | 44200 | 7930 | 37700 | 6830 | 2830 | 53800 | 76400 | 623 | 11900 | – |
